From patent US20140179612A1

Target: αVβ3 integrin receptor on choroid endothelial cells (RF/6A)
Assay: cell-based or functional assay

Row | Substance | IC50, MTT assay of RF/6A choroid endothelial cell proliferation induced by VEGF 165 (50 ng/ml) | inhibition of RF/6A cell proliferation at 15.6 nM (MTT assay)
1 | transferrin-tumstatin protein (recombinant fusion, secreted from ARPE cells, histidine tagged) (from UniProt P02787 20-698; Q01955 1426-1670) | 5.97 nM | 84%
2 | tumstatin protein (recombinant, secreted from ARPE cells, histidine tagged) (from UniProt Q01955 1426-1670) (ligand) | 186 nM | 
